35 sequences from the Immune Epitope Database (IEDB) can be followed below.

For test [1], the target named is HLA-B*44:03. The test is described as follows: IEDB peptide-MHC binding, purified MHC/competitive/radioactivity; filed as Kd, often an IC50 or EC50 that approximates it; ≥ and ≤ were set here for values at or beyond the usual limits of such assays.
Test [2] has as its target HLA-B*40:01. Described as above.
In test [3] the target is HLA-B*44:02. The test is described as above.
The target of test [4] is HLA-A*24:02. The test is described as follows: IEDB peptide-MHC binding, purified MHC/competitive/fluorescence; ≥ and ≤ were set here for values at or beyond the usual limits of such assays.
For test [5], the target named is HLA-A*32:01. In words: IEDB peptide-MHC binding, purified MHC/competitive/radioactivity; filed as Kd, often an IC50 or EC50 that approximates it; ≥ and ≤ were set here for values at or beyond the usual limits of such assays.
Test [6] has as its target HLA-A*26:01. Described as above.
The target of test [7] is HLA-A*23:01. The description is as above. Particulars: source organism: Mammarenavirus mopeiaense.
Test [8] addresses HLA-A*30:01. The test is described as above.
The target in test [9] is HLA-A*24:02. Described as above. Particulars: source organism: Mammarenavirus mopeiaense.
In test [10] the target is HLA-B*07:02. The test is described as follows: IEDB peptide-MHC binding, purified MHC/direct/fluorescence; filed as Kd, often an IC50 or EC50 that approximates it; ≥ and ≤ were set here for values at or beyond the usual limits of such assays. Particulars: source organism: Homo sapiens.
Test [11] concerns the target HLA-A*02:01. In words: IEDB peptide-MHC binding, purified MHC/competitive/fluorescence; filed as Kd, often an IC50 or EC50 that approximates it; ≥ and ≤ were set here for values at or beyond the usual limits of such assays.
Test [12] concerns the target HLA-A*02:01. In words: IEDB peptide-MHC binding, purified MHC/competitive/fluorescence; ≥ and ≤ were set here for values at or beyond the usual limits of such assays.
The target of test [13] is HLA-A*69:01. The test is described as follows: IEDB peptide-MHC binding, purified MHC/direct/fluorescence; filed as Kd, often an IC50 or EC50 that approximates it; ≥ and ≤ were set here for values at or beyond the usual limits of such assays. Particulars: source organism: Homo sapiens.
Test [14] deals with HLA-A*29:02. In words: IEDB peptide-MHC binding, purified MHC/competitive/radioactivity; filed as Kd, often an IC50 or EC50 that approximates it; ≥ and ≤ were set here for values at or beyond the usual limits of such assays.
The target of test [15] is HLA-A*01:01. Described as above.
Test [16] addresses HLA-A*30:02. The test is described as above.
The target of test [17] is HLA-A*02:02. Described as above. Particulars: source organism: Vaccinia virus WR.
The target in test [18] is HLA-A*02:03. The description is as above. Particulars: source organism: Vaccinia virus WR.
Test [19] has as its target HLA-A*02:06. The test is described as above. Particulars: source organism: Vaccinia virus WR.
[20] abbreviates: source organism: Dengue virus 4 Philippines/H241/1956.
The mark [21] stands for this setting: source organism: Zaire ebolavirus.
The mark [22] stands for this setting: source organism: Dengue virus 1 Brazil/97-11/1997.
Where [23] appears, read: source organism: Dengue virus 2 Jamaica/1409/1983.
Where [24] appears, read: source organism: Mammarenavirus mopeiaense.
Where [25] appears, read: source organism: Vaccinia virus.
Setting [26] is: source organism: Vaccinia virus WR.
[27] abbreviates: source organism: Mammarenavirus lassaense.
Where [28] appears, read: source organism: Mammarenavirus brazilense.
Where [29] appears, read: source organism: Dengue virus 3 Martinique/1243/1999.

As usually defined, the Kd is the constant that tells how readily two partners part at equilibrium. As a reminder, the IC50 is the midpoint of a concentration-inhibition curve. A lower IC50 goes with higher potency.

For the sequence GEIGAVTLDF, the Kd in [1] (setting [20]) amounted to 21.6 nM; in test [2] (setting [20]), 73 nM; in test [3] (setting [20]), 17 nM.

In turn, NAPDDLVLF gave an IC50 in test [4] (setting [21]) of at least 107000 nM.

Consider GTAKLRWFVE, for which the Kd in test [5] (setting [22]) was at least 21100 nM.

For the sequence TESHNQTFL, the Kd in test [2] (setting [23]) was 16.3 nM.

Turning to LCLSGEGWPY, the dissociation constant (Kd) in test [6] (setting [24]) is at least 69700 nM; in test [7] it was at least 70000 nM; in test [5] (setting [24]), at least 53200 nM; in test [8] (setting [24]), at least 70400 nM; in [9], at least 70300 nM.

In test [10], RPRHQGVMV gave a Kd of 51.5 nM.

For the sequence EAMNEENRF, the half-maximal inhibitory concentration (IC50) in test [4] (setting [21]) was at least 147000 nM.

As for KEVALLRTY, the values for the Kd in test [1] (setting [20]) and in [3] (setting [20]) were 63.6 nM and 2.63 nM, respectively.

NLATSIYTI displayed a dissociation constant (Kd) in [11] (source organism: Variola virus) of 1.1 nM.

Regarding KELKCGSGI, the Kd turned out to be 206 nM in test [2] (setting [23]) and 678 nM in [3] (setting [23]).

In the case of KRTLAAMPE, in test [4] (setting [21]), the IC50 is 42900 nM.

Consider FGNLSPETL, for which the half-maximal inhibitory concentration (IC50) in test [12] (setting [25]) worked out at 59500 nM; in test [4] (setting [25]), 57800 nM.

Consider DAYRRIHSL, for which the equilibrium dissociation constant (Kd) in test [13] was found to be 119 nM; in test [10], 16400 nM.

With KMSYSSVMI, the equilibrium dissociation constant (Kd) in [5] (setting [26]) turned out to be 14 nM.

Consider GESSSNPTI, for which the Kd in [2] (setting [20]) stood at 16.8 nM; in test [3] (setting [20]), 75.2 nM.

On to VYQVNNLEE, for which the IC50 in test [4] (setting [21]) is at least 254000 nM.

With VHEHDQIGD, the IC50 in [4] (source organism: Variola virus) came to 1870 nM. This counts as single-digit micromolar.

With HEHDQIGDI, the 50% inhibitory concentration (IC50) in [4] (source organism: Variola virus) is 23800 nM.

Consider KIDQIIHDF, for which the values for the IC50 in [12] (setting [21]) and in test [4] (setting [21]) were 66400 nM and 46900 nM, respectively.

The sequence LLGPVIGML had a Kd in test [11] (source organism: Escherichia coli 536) of 3.4 nM.

Take FYSQESPQSY: the Kd in test [6] (setting [27]) is 380 nM; in test [14] (setting [27]), 1.76 nM; in [15] (setting [27]), 758 nM; in test [5] (setting [27]), 9400 nM; in test [16] (setting [27]), 2930 nM; in test [8] (setting [27]), at least 49500 nM.

As for IHAHHQWMTT, the dissociation constant Kd in [5] (setting [22]) was at least 26800 nM.

FTFSNVCESV gave an equilibrium dissociation constant (Kd) in test [11] (source organism: Vaccinia virus Tian Tan) of 8.4 nM.

As for STMDVNHPI, in test [5] (setting [26]), the Kd came to 7.42 nM.

VELPNSLEEL: the equilibrium dissociation constant (Kd) in test [2] (setting [22]) amounted to 29.2 nM.

Take LFLPKLVVG: the 50% inhibitory concentration (IC50) in [12] (setting [21]) was determined as 35300 nM; in [4] (setting [21]), 1560 nM.

Turning to VMYAFTTPL, the Kd was 0.573 nM in test [17], 1.28 nM in test [18], 5.71 nM in test [19] and 0.291 nM in test [5] (setting [26]).

SIINSNVTW: the equilibrium dissociation constant (Kd) in test [5] (source organism: Vaccinia virus L-IPV) is 11.1 nM.

Regarding FEKQLGQIML, the Kd in test [2] (setting [22]) was 144 nM.

For ELLGYCVSLF, the equilibrium dissociation constant (Kd) in test [6] (setting [28]) was 315 nM; in test [14] (setting [28]), 9340 nM; in [15] (setting [28]) it was 3600 nM; in [5] (setting [28]), 11000 nM; in [16] (setting [28]), 17400 nM; in test [8] (setting [28]), 1880 nM.

Sequence SKSTDFLDP gave an IC50 in [4] (setting [21]) of at least 592000 nM.

As to YRGTTFAEG, the IC50 in test [4] (setting [21]) was at least 147000 nM.

With PWLTEKEAM, the IC50 in test [12] (setting [21]) was at least 216000 nM; in test [4] (setting [21]), 435 nM.

On to GEIGAIALDF, for which the Kd in test [1] (setting [29]) was found to be 8.92 nM; in test [3] (setting [29]) it was 13.6 nM.

Turning to RLGYILEDI, the Kd in [5] (setting [20]) worked out at 7180 nM.
